Results: the DeepSol protein solubility set

experiment: soluble on expression in E. coli; label from the status in PepcDB or PDB records

Sequence | soluble on expression in E. coli
MFNHVTVLLKETVDGLDIKPDGTYVDCTLGGGGHSSYLLSQLTEGGRLIAFDQDEIAIQNAKEKFSSYGEQFITVKSNFRYLSEKLQELGITEVDGILFDLGVSSPQLDTPERGFSYHHDAPLDMRMDQDAPLTAYDVVNSWSYEQLVRIFFQYGEEKFSKQIARKIEAYRENKAIETTGELVELIKEGIPAPARRTGGHPAKRVFQAIRIAVNDELKVFEEALESAIEMVKPGGRVSVITFHSLEDRICKTTFKRNSTTPQLPPGLPIIPDEFKPKLKLITRKPILPSDIELEENNRARSAKLRIAEKR | not soluble
MPTFLECPHCQRLYSKHSLLIHEKNCIESMHKILEQEKLKMQNNQKRGRSKSGRRKKIRPAEMTTTERPRTRSLSRYNHENNGLRICFVCGEQYDDQVIEEHKEKCYGDWSILSKSLSVRFHIHQPKTLNTPSIDGTIDVARENMRAVQSSHNCQIVRCRFCNARISLQHAQSHQCVRFEPTIEFYC | soluble
MMSKIFDLVVIGAGSGGLEAAWNAATLYKKRVAVIDVQMVHGPPFFSALGGTCVNVGCVPKKLMVTGAQYMEHLRESAGFGWEFDRTTLRAEWKNLIAVKDEAVLNINKSYDEMFRDTEGLEFFLGWGSLESKNVVNVRESADPASAVKERLETEHILLASGSWPHMPNIPGIEHCISSNEAFYLPEPPRRVLTVGGGFISVEFAGIFNAYKPKDGQVTLCYRGEMILRGFDHTLREELTKQLTANGIQILTKENPAKVELNADGSKSVTFESGKKMDFDLVMMAIGRSPRTKDLQLQNAGVMIKNGGVQVDEYSRTNVSNIYAIGDVTNRVMLTPVAINEAAALVDTVFGTTPRKTDHTRVASAVFSIPPIGTCGLIEEVASKRYEVVAVYLSSFTPLMHKVSGSKYKTFVAKIITNHSDGTVLGVHLLGDNAPEIIQGIGICLKLNAKISDFYNTIGVHPTSAEELCSMRTPSYYYVKGEKMEKPSEASL | soluble
MSLNVSHFFPETFVSLVKDMLTKTDGSTTKAIETLIGGKAEIEVFQQNNIDYDKLSPEEARLFQRDDDILFRTSSLKTGDDYLSYNYVYVKTNLLPPAIKQDLQEERLPIGKIIAELESRREIFSTGDCLGKHFTQLVPVSADRTYAFKKYQIISGRQCMFYVCELFDLEKICKLTAGEGHHHHHH | not soluble
MTTRVLYVRHAHAHGRQTWGGDDNKRPLDKKGRRQAEMLVPMLLPFKPTAIYSAVPDRCQATALPLADELGLDVSVNRLFGDDAWETDPEACKKRFTDVVAQGGVPMIVGQGDIIPEMIKWFSENGTLPIDEKIKAKKGSVWVLSFHDGVFTGADYLEHHHHHH | soluble
VTDTDLITAGESTDGKPSDAAATDPPDLNADEPAGSLATMVLPELRALANRAGVKGTSGMRKNELIAAIEEIRRQANGAPAVDRSAQEHDKGDRPPSSEAPATQGEQTPTEQIDSQSQQVRPERRSATREAGPSGSGERAGTAADDTDNRQGGQQDAKTEERGTDAGGDQGGDQQASGGQQARGDEDGEARQGRRGRRFRDRRRRGERSGDGAEAELREDDVVQPVAGILDVLDNYAFVRTSGYLPGPHDVYVSMNMVRKNGMRRGDAVTGAVRVPKEGEQPNQRQKFNPLVRLDSINGGSVEDAKKRPEFGKLTPLYPNQRLRLETSTERLTTRVIDLIMPIGKGQRALIVSPPKAGKTTILQDIANAITRNNPECHLMVVLVDERPEEVTDMQRSVKGEVIASTFDRPPSDHTSVAELAIERAKRLVEQGKDVVVLLDSITRLGRAYNNASPASGRILSGGVDSTALYPPKRFLGAARNIEEGGSLTIIATAMVETGSTGDTVIFEEFKGTGNAELKLDRKIAERRVFPAVDVNPSGTRKDELLLSPDEFAIVHKLRRVLSGLDSHQAIDLLMSQLRKTKNNYEFLVQVSKTTPGSMDSD | not soluble
MNVCRLYGEELQKSQSNTFEDYFNRSEVTYRDGGEERTLSVLYLRHFEAALLDWLPYESDPLFTANGRDIHLRDIIALVCLWKNPAYRQRKRVYIHDEEELRRYFAEVDAKTLQALVSEWAETGECRLPERSA | not soluble
MTFTPPEFKILSVNTRNLETIFSTLLGRYKIITDPPVSEAVSSGEIIRNTLETLLARTHKVVICKTDRETARDVFKQLSNELREVLKENNEEKNKQAILFLLGALLHRYFRLIKEYDNFNSYIPYPSFLFSKPPSNVKDCRLFQAIRLALGLPEVMERNYRINDLKILDVTTIVTALETFRDNMQLIVGKDEGKMPRYKSYPHFAADKNFETYLQEIIDEHKRRNPVVLNQFKAINFIQSLVKQIEEEQRQIEEALTHLGKFLPKTCSDFKTISLELMEEQIKAQIESNVLQEKIIDLLYTGHIQENFSTMDCGSFIEAMKNCNSSLARYRALGGYCLLLQNEGVKEQLRFCIHQALGVEINPNELTDKDMLDAIRLLKTYFEANPKVELNFDFFNGKGSMNTFILQTELALAKKVQTVNKAQEDNSETRTTSLFV | not soluble
FMQDFEDIQKDIEQLDIKCAHEQMNIQKQYDEKKKPLFEKRDEIIQKIPGFWANTLRKHPALSDIVPEDIDILNHLVKLDLKDNMDNNGSYKITFIFGEKAKEFMEPLTLVKHVTFDNNQEKVVECTRIKWKEGKNPIAAVTHNRSDLDNEIPKWSIFEWFTTDELQDKPDVGELIRREIWHNPLSYYLGLEE | soluble
MSKRNTQLRRHAISNMVNELGEVSVDELAQKFETSEVTIRKDLASLEKNGQLLRRYGGAIAIPTEVIHEELSSNVSTRKLSLAKAAASLIRDHNRIVIDSGSTTAALIQQLNDKRGLVVMTNSLHVANALNELESEPTLLMTGGTWDTHSESFQGKVAESVLRAYDFDQLFIGADGIDLERGTTTFNELVGLSKVMAEVSREVIVMIESEKIGRKIPNLELAWHQIDVLVTDADIQPEHKVQIEQHGVKVICALEHHHHHH | soluble
LPPGWQSYLSPQGRRYYVNTTTNETTWERPSSS | soluble
MGSDKIHHHHHHMGEMVELKKELLRDVDLAERLLGRERPVKSEIEIRGKITRSTIEEISRIKKEPEWMKRLRLRSLELFYKLPTPKWLVGIDVIDLDEMIVYSKPETERASSWEELPKEIREFYERLGLPEIEARFLSGLSAVFDSETVYARVKKYLEEKGVIVMPIEEAVQKYPDLVKRYFMRVFPPSDHKFAALHGALWSGGTFIYVPRGVKIREPIESFFLIGKSGEGQFEHSLIVADEGAYVEWIEGCSAPRLTKFSFHDGMVEAYAHRNATIKIITVQNWSKDVINLNNKRAIAEEGARVDWVEGSIGSKMTFVYPSTILKGDNSSSRSAVVTIAKGPYLKDSGSKMIHVGRNTRSQVINKTISADGGINVYRGIIRIVKGARNAVANVECESLILDDKSKAHTYPHNQVDEPTASVNHEATTGRLTEPQLFYLTSRGLTEEEAKSLIVLGFLEDVLKELPFEYANVLTKVVRLEFSEYGAFG | not soluble
GMSIYNSIGKQYSQTRVPDIRIVNAIINLLNLPKGSVIADIGAGTGGYSVALANQGLFVYAVEPSIVMRQQAVVHPQVEWFTGYAENLALPDKSVDGVISILAIHHFSHLEKSFQEMQRIIRDGTIVLLTFDIRLAQRIWLYDYFPFLWEDALRFLPLDEQINLLQENTKRRVEAIPFLLPHDLSDLFAAAAWRRPELYLKAEVRAGISSFALANQDLVEKGLELLTADLNNGEWIRKYGEIHHLQEIDIGYRFIYTTLDK | soluble
MKIDYLTLFPEMFDGVLNHSIMKRAQENNKLQINTVNFRDYAINKHNQVDDYPYGGGQGMVLKPEPVFNAMEDLDVTEQTRVILMCPQGEPFSHQKAVELSKADHIVFICGHYEGYDERIRTHLVTDEISMGDYVLTGGELPAMTMTDAIVRLIPGVLGNEQSHQDDSFSDGLLEFPQYTRPREFKGLTVPDVLLSGNHANIDAWRHEQKLIRTYNKRPDLIEKYPLTNEDKQILERYKIGLKKG | not soluble
FINQKKVEESELIENKTYGVLITKAGNYHKFESNQLLKSTTDFKSESDTIIFAQTIANTDQIFIVTSLGNIINIPVYKLAFNSKNKLASLVSKKPILLEYETIVFVGTMN | not soluble
MEETSMGKLSICRQNVPMKSMPSRLPKIDQAGVARRLEALRDALGLDKGEFAQSFGLDPSSYSKVLQGKKPLKSEYGHAIAEGWGVSMDFIYRGDMSRIDETLRTKVMQNLTAPMR | not soluble
MSLTAENILNRNFEANKPNQKWFTDISYLNYGKGQKAYISAIIDRYDLSIIVYKVSKRNDLKLVMDILKLALQNNDASNTILHSDRGFQYTSKHYKNYLDTHNVKISMSKAGSCLDNQPIEAFWGTLKSEYYYRNQFSTYEDLETGISEYINYYMNKRYVPKFDGLTPNEYRNVSEGHHHHHH | not soluble
GMEFNHLTKQLNQLLAQDYVAFSITENPVVQMLSQASFAQIAYVMQQYSIFPKELVGFTELARRKALGAGWNGVAQELQENIDEEMGSTTGGISHYTLLADGLEEGLGVAVKNTMPSVATSKLLRTVLSLFDRQVDYVLGATYAIEATSIPELTLIVKLVEWLHEGAIPKDLQYFFSKHLDEWEIEHEAGLRTSVAAYIQPEEFGEFAAGFRAMIDAMQVWWQELAQEAISSEVVLSTAIAQHH | soluble
MLHEIPKEEILEKLKNIGAKKVLIQSPEGLRREAEELAEFLEKNEIEVILHGEINYGACDPADHEARLLGCDALIHLGHSFMMLSLEVPTIFVPAFAKVNVVEALKKNLHEIKKLGKKIIVTTTAQHIHQLERAIEYLKSQGFEPVVGRGDNRVSWPSQVLGCNFSVAKVEGDGILFIGSGTFHPLGLALATGKRVLAVNPYSGDCQWINELAERFIRKRWAQIAKAMDAKRFGVVISTKRGQLRLNEAKRIIKLLKDHGREAKLIAMNDISYSKLEGFSFDAYVIVACPRVPIDDYENWRKPVLTPREVEILLGLREEYIFDEIPGGVREKDEPLGISLHSTRLEHHHHHH | not soluble
MKSPIVSANLVTRDNDKIAEKTGNIYESLVVISRRARQISIKIKEELNSKLAEFASKEDNLEEIFENREQIEISKYYERMPKPSTLATEEFLEDKVMFRHTGIASATPRKEDEK | not soluble
GEQPSIQLTFADQNNSEMSVVHLNQLLKTNHISADKIIEKDGKTTIVFDGEDAQSKARALLNKELNKDDSITFSYVSVAPEWLNEMGFSPIKLGLDLRGGVQFLLNVDVNKAFEEQRDALIDEINASRDQRVRGVQVRAESGNRITVNSDSEQALSEVNKFLRQNYPGWISKSSSRGFVLEPSEQNIQEFQSSTLQQNLKIMRGRIEELGITEALVQRQGKESIRIELPGVQDPAQAKNVIGATASLAFYEVKDASQAHSSQDLVLQDNDGRTVILAKRPVLTGEHIVNARAGVDKMGMSEVNISLDHAGGKKMSDFSATHIGKPMATVYREYKTNDRGVTERSERVISVATIQSQLGSQFRITGAGSMDDAQQLALLLRAGSLTAPVTIVEERTIGASLGAENIEN | not soluble
MSLEKSSRINGGKMNREEVKDSVLLGDSLEIMRRIDDCIYDLIFLDPPYYLQMTPKRLKRWNNRSVPQTVREYWDAFPSFEAYDSFISSVLKEAKRLMSDTSTIWAIGTYHNIFRIGKIMQDMGFWILNDVVWIKTNPMPNWLGVRFTNSTETLIWATKGKEQKNYTYNRNLAKEFGLGKTANNVWVMKTSRGNERVRDENRKSVHPAQKPLELMKRIILSSTKEGDLILDPFAGVGTTGVAASMLGRNFTLIEKDPVYYRAMLSRFSRFGIRYTEKIEGHHHHHH | not soluble
PLWVAPDGHIFLEAFSPVYKYAQDFLVAIAEPVCRPTHVHEYKLTAYSLYAAVSVGLQTSDITEYLRKLSKTGVPDGIMQFIKLCTVSYGKVKLVLKHNRYFVESCHPDVIQHLLQDPVIRECRLRNSEGEATELITETF | not soluble
MIVEPMTKPRKPTVQRCQSFFTNGANHFYCKKSTHDGGRTHNLLIRSQTRCHYATRATVCWKFSIINKYIPTLANITITTLRKLYKRFIDRESLFLIFFRKDEHIVQNIIN | soluble
